Data set [1] in a line: CHX chase western blot (half-life), TMG. The settings on record: glycan lost; control: wild-type SIX1, TMG-treated.
Data set [2] is described as follows: ubiquitin affinity bead pulldown, SIX1 blot, MG132 and NEM. The settings on record: glycan lost; control: wild-type SIX1, TMG-treated.
Data set [3] can be described thus: western blot, BEL7402-SIX1KO rescue cells, TMG. The settings on record: glycan lost; control: wild-type SIX1, TMG-treated.
The nature of data set [4]: western blot, BEL7402 and BEL7404 cells. Particulars: glycan lost; control: untreated / control lentivirus.

The results in this text go back to paper PMC7449927.

B1: SIX1 (sine oculis homeobox homolog 1): T276A (protein)
parent chain: MSMLPSFGFTQEQVACVCEVLQQGGNLERLGRFLWSLPACDHLHKNESVLKAKAVVAFHRGNFRELYKILESHQFSPHNHPKLQQLWLKAHYVEAEKLRGRPLGAVGKYRVRRKFPLPRTIWDGEETSYCFKEKSRGVLREWYAHNPYPSPREKRELAEATGLTTTQVSNWFKNRRQRDRAAEAKERENTENNNSSSNKQNQLSPLEGGKPLMSSSEEEFSPPQSPDQNSVLLLQGNMGHARSSNYSLPGLTASQPSHGLQTHQHQLQDSLLGPLTSSLVDLGS
In the case of B1, the degradation_or_half_life entry in data set [1] is reported as “decreases”. In addition, in data set [2], the “other: ubiquitination” value is recorded as “increases”. Besides, in data set [3], the expression_or_secretion result is “decreases”.

B2: SIX1 (sine oculis homeobox homolog 1): OGT knockdown (protein)
parent chain: B1 parent chain
With B2, the expression_or_secretion result in data set [4] is reported as “decreases”.
